The nature of data set [1]: Porphyrin fluorescence in buffer. It is filed as physicochemical. The conditions noted are these: 5 μM, 10 mM phosphate buffer pH 7.4, excitation 425 nm; vs pristine MCPTPyP. The source says:
(§1) Peptide conjugation influences the spectral features of the porphyrin chromophore as evidenced by the red shift in the absorption maximum in the region of the Soret band region. The Q bands are also affected, particularly in the Cu‐Ph‐Pep and Zn‐Ph‐Pep compounds (Figure 1). In this case the presence of a metal ion within the porphyrin's core might contribute to the observed spectral profile of these compounds. […] The fluorescence spectra of the investigated systems were also acquired in view of the interaction of the studied conjugates with cells (see below biological section).[41] The fluorescence spectra were recorded with the photoexcitation at 425±5 nm, in 10 mM phosphate buffer pH 7.4 and 5 μM concentration. The emission spectrum of the porphyrin precursor MCPTPyP ( Ph ) was also obtained for the sake of comparison.
Spectra were recorded on a Horiba Fluoro‐max‐4 spectrofluorometer from 440–800 nm in 1 nm steps, at an excitation wavelength λexc=425 nm, at room temperature. The final fluorescence spectra represent averages of at least three measurements. Bandwidths of 5 nm for both excitation and emission were used. The sample of the compound used to record absorption spectra were the same as those for the CD spectra.

A short description of data set [2]: UV-Vis self-aggregation of the conjugates. It is filed as physicochemical. To be noted: UV-Vis 300–650 nm, 5 μM, 10 mM phosphate buffer pH 7.4, room temperature, 0–120 h. As for the experimental part:
We first studied the effects of peptide conjugation on the porphyrin chromophore, by UV‐Vis spectra in the region between 300–650 nm. The spectra were recorded using a solution of 5 μM Porphyrin‐peptide conjugate in 10 mM phosphate buffer pH 7.4. The UV‐Vis profile of the porphyrin precursor MCPTPyP, recorded at the same concentration, is also shown for the sake of comparison (Figure 1).
as §1
Spectra were recorded on a Jasco V‐670 Spectrophotometer at room temperature. All measurements were performed in the 300–650 nm wavelength region, in a 10 mM phosphate buffer solution at pH 7.4 using a 1 cm path length quartz cell. The spectra of all the peptide‐porphyrin conjugates, either in the absence or in the presence of equimolar Aβ42, were acquired at 5 μM. In some cases, the same sample solution was used to run the CD spectra. The final concentrations of Aβ42 and peptide conjugates were 5 μM (1 : 1 molar ratio).

For the next data set, the target named is Aβ42 (Homo sapiens, UniProt P05067). The data set can be described thus: Grating-Coupled Interferometry (GCI) binding to immobilized Aβ42. The conditions noted are these: GCI fit quality parameter. As for the experimental part:
The Grating‐Coupled Interferometry (GCI) is a widely used analytical technique for characterizing intermolecular interactions. It allows quantitative measurements of both the affinity and the kinetics of the binding events. This high sensitivity label‐free method was exploited to measure the interactions of Aβ42 with Cu‐Ph‐Pep , Ph‐Pep , and Zn‐Ph‐Pep (Figure 5S). Control experiments with pristine MCPTPyP and the peptide GPGKLVFF ( Pep ) were carried out for comparison. The calculated association and dissociation kinetic constants (kon and koff, respectively) and the thermodynamic binding constant (KD), are summarized in Table 1. The obtained values indicate that all the conjugates show good affinities with Aβ42. It is also clear from Table 1 that the peptide moiety is fundamental for the molecular recognition of the Aβ42 peptide.[48] […] Nevertheless, it is important to emphasize that the interaction with Aβ42 is primarily mediated by the peptide rather than by the porphyrin macrocycle. We next investigated whether these peptide derivatives could be employed as molecular probes for the detection of Aβ42 aggregated species. A new set of CD experiments was then carried out with Aβ42 at 20 μM both in the absence and in the presence of the porphyrin‐peptide conjugates at 1 : 1 molar ratio in the UV (195–350) and Visible (350–500) regions. […] The signal rapidly evolved toward the typical β‐sheet profile (already within 24 h) with a single minimum at 216 nm, an x‐axis intercept at 202 nm and a maximum shift at a wavelength 195 nm.[49] […] For the sake of comparison, the CD spectra of the porphyrin‐peptide conjugates at 20 μM were also recorded in the same experimental conditions, both in the far‐UV and Visible regions (Figure 6S).
The experiments were performed on a Creoptix WAVE system (Creoptix). Borate buffer (100 mM sodium borate pH 9.0, 1 M NaCl) was used for chip conditioning. Aβ42 peptide (20 μg/ml in Na Acetate pH 4.5) was immobilized on 4PCH WAVE chips (quasiplanar polycarboxylate surface; Creoptix) according to the manufacturer instructions at a final density of 1910±40 pg/mm^2. Single‐cycle sequential injections of dilution series for each Porphyrin‐Peptide conjugates in running buffer (PBS, 0.005 % Tween 20, 1 % DMSO, 0.2 mg/ml BSA) were performed at 25 °C, using a flow rate of 100 μl/min. In details, for the conjugate Cu‐Ph‐Pep , 1 : 2 dilution series starting from 200 μM were injected for 10 s association time, 45 s dissociation time, followed by a dissociation time of 600 s for the last higher concentration injection. Finally, for the conjugates Ph‐Pep and Zn‐Ph‐Pep , 1 : 2 dilution series starting from 50 μM and 100 uM, respectively, were injected for 30 s association time, 45 s dissociation time, followed by a dissociation time of 600 s for the last higher concentration injection. Blank injections were used for double referencing and a DMSO calibration curve for bulk correction. Analysis and correction of the obtained data were performed using the Creoptix WAVE control software (correction applied: X and Y offset; DMSO calibration; double referencing). Mass transport binding models with bulk correction were used to fit all experiments. All the experiments have been performed at least in triplicate.
Figure 5S. Quantitative binding kinetics of Aβ42 vs a) MCPTPyP; b) Cu-Ph-Pep; c) Ph-Pep; d) Zn-Ph-Pep; and e) Pep measured by GCI. All curves were blank subtracted. Experiments were performed in triplicate. All the quality assessments (i.e., χ2 shown in Table 1 of the main text , parameter errors, and residual plots were acceptable; the sensorgrams had sufficient curvatures an d the kinetic constant k off were within the measurable range) were fulfilled. Descriptive Statistical Analysis was employed to calculate the mean of the obtained values of k on, koff and KD as a measure of central tendency and standard deviations of the former values were computed as a measure of dispersion.
Figure 6S. […]

Sequence of Aβ42 (P05067 672-713 limits assumed): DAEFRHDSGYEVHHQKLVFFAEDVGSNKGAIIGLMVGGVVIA

For `COC(=O)[C@H](Cc1cn(CCCC[C@H](NC(=O)CNC(C)=O)C(=O)N2CCC[C@H]2C(=O)NCC(=O)N[C@@H](CCCCN)C(=O)N[C@@H](CC(C)C)C(=O)N[C@H](C(=O)N[C@@H](Cc2ccccc2)C(=O)N[C@@H](Cc2ccccc2)C(N)=O)C(C)C)nn1)NC(=O)c1ccc(-c2c3nc(c(-c4cc[n+](C)cc4)c4ccc([nH]4)c(-c4cc[n+](C)cc4)c4nc(c(-c5cc[n+](C)cc5)c5ccc2[nH]5)C=C4)C=C3)cc1` [Zn‐Ph‐Pep], the fluorescence emission intensity result in data set [1] was “somewhat decreased”. Also, the self-aggregation entry in data set [2] was “slight propensity to self‐aggregation”. On Aβ42, the “χ^2 (average of the squared residuals, fitting confidence)” value amounted to 0.49±0.09.

Values taken from paper PMC11610669, “A Spectroscopic Study on the Amyloid‐β Interaction with Clicked Peptide‐Porphyrin Conjugates: a Vision Toward the Detection of Aβ Peptides in Aqueous Solution” (Chembiochem, 2024).
